Source: paper PMC11536930 (Nature structural & molecular biology, 2024)

B1: rat TARPγ2 (stargazin) K52E/K53E (KKEE) mutant, 1D4-tagged (natural protein)
chain: MGLFDRGVQMLLTTVGAFAAFSLMTIAVGTDYWLYSRGVCKTKSVSENETSEENEEVMTHSGLWRTCCLEGNFKGLCKQIDHFPEDADYEADTAEYFLRAVRASSIFPILSVILLFMGGLCIAASEFYKTRHNIILSAGIFFVSAGLSNIIGIIVYISANAGDPSKSDSKKNSYSYGWSFYFGALSFIIAEMVGVLAVHMFIDRHKQLRATARATDYLQASAITRIPSYRYRYQRRSRSSSRSTEPSHSRDASPVGVKGFNTLPSTEISMYTLSRDPLKAATTPTATYNSDRDNSFLQVHNCIQKDSKDSLHANTANRRTTPV
B2: rat GluA2 flip(Q) isoform N619K mutant, FLAG-tagged (receptor, UniProt P19491-2 22-883, looked up)
chain: VSSNSIQIGGLFPRGADQEYSAFRVGMVQFSTSEFRLTPHIDNLEVANSFAVTNAFCSQFSRGVYAIFGFYDKKSVNTITSFCGTLHVSFITPSFPTDGTHPFVIQMRPDLKGALLSLIEYYQWDKFAYLYDSDRGLSTLQAVLDSAAEKKWQVTAINVGNINNDKKDETYRSLFQDLELKKERRVILDCERDKVNDIVDQVITIGKHVKGYHYIIANLGFTDGDLLKIQFGGANVSGFQIVDYDDSLVSKFIERWSTLEEKEYPGAHTATIKYTSALTYDAVQVMTEAFRNLRKQRIEISRRGNAGDCLANPAVPWGQGVEIERALKQVQVEGLSGNIKFDQNGKRINYTINIMELKTNGPRKIGYWSEVDKMVVTLTELPSGNDTSGLENKTVVVTTILESPYVMMKKNHEMLEGNERYEGYCVDLAAEIAKHCGFKYKLTIVGDGKYGARDADTKIWNGMVGELVYGKADIAIAPLTITLVREEVIDFSKPFMSLGISIMIKKPQKSKPGVFSFLDPLAYEIWMCIVFAYIGVSVVLFLVSRFSPYEWHTEEFEDGRETQSSESTNEFGIFNSLWFSLGAFMQQGCDISPRSLSGRIVGGVWWFFTLIIISSYTAKLAAFLTVERMVSPIESAEDLSKQTEIAYGTLDSGSTKEFFRRSKIAVFDKMWTYMRSAEPSVFVRTTAEGVARVRKSKGKYAYLLESTMNEYIEQRKPCDTMKVGGNLDSKGYGIATPKGSSLGTPVNLAVLKLSEQGVLDKLKNKWWYDKGECGAKDSGSKEKTSALSLSNVAGVFYILVGGLGLAMLVALIEFCYKSRAEAKRMKVAKNPQNINPSSSQNSQNFATYKEGYNVYGIESVKI

Key:
[1] = target: rat GluA2 flip(Q) isoform (unedited homotetrameric AMPA receptor), FLAG-tagged (rat, UniProt P19491-2 22-883); assay: cryo-EM structure
cryo-EM structure = target: the molecule itself; assay: cryo-EM structure

| Binder | stoichiometry N [1] | binding result (cryo-EM structure) |
| --- | --- | --- |
| B1 | 4 γ2(KKEE) per A2iQ tetramer | – |
| B2 | – | binds |
